Measurements as given in patent US20040009502A1 (published 2004).

B1: mRBT1N121 fused to the GAL4 activation domain (pGADT7-mRBT1N121) (other, mouse, UniProt Q9ERC3 1-121, looked up, not shown: large carriers)
chain: MGGLKRKHSDLEEEEEEEKWDWSPTALRSYQQALLRISLDKVQRSLGPRAPSLRRHVLIHNTLQQLQAAIRLAPAPALPPEPLFLGEEDFSLSTTIGSILRELDTSMDEMEPPLNPAASSS
notes: Made by removing the Xho I fragment from pGADT7-mRBT1
B2: mouse Replication Protein Binding Trans-Activator (mRBT1) fused to the GAL4 activation domain (pGADT7-mRBT1) (other, UniProt Q9ERC3 1-197, looked up, not shown: large carriers)
chain: MGGLKRKHSDLEEEEEEEKWDWSPTALRSYQQALLRISLDKVQRSLGPRAPSLRRHVLIHNTLQQLQAAIRLAPAPALPPEPLFLGEEDFSLSTTIGSILRELDTSMDEMEPPLNPAASSSPQNEIVSQADPVFLEALSSRYLGDSGLDDFFLDIDTSAVEKDVALPPPEPPHSLFCSPGSWEWNELDHIMEIILGS
B3: mRBT1C76 fused to the GAL4 activation domain (pGADT7-mRBT1C76) (other, UniProt P04386 768-881, looked up)
chain: ANFNQSGNIADSSLSFTFTNSSNGPNLITTQTNSQALSQPIASSNVHDNFMNNEITASKIDDGNNSKPLSPGWTDQTAYNAFGITTGMFNTTTMDDVYNYLFDDEDTPPNPKKEPQNEIVSQADPVFLEALSSRYLGDSGLDDFFLDIDTSAVEKDVALPPPEPPHSLFCSPGSWEWNELDHIMEIILGS
notes: PCR product encoding the C-terminal 76 amino acids of mRBT1 cloned into EcoR I and Sma I sites of pGADT7; also called C-terminal 76 amino acids of mRBT1

How the values were obtained:
[1] = target: T1, mLATS2b fused to the GAL4 DNA binding domain (pGBKT7-mLATS2b) (mouse, UniProt P04386 1-147 (Saccharomyces cerevisiae entry)); assay: yeast two-hybrid (growth on quadruple dropout plates)
T1 construct: expressed in yeast AH109; also called clone 3-1; mLATS2/2b

[2] = target: T2, mLATS2N96 fused to the GAL4 DNA binding domain (pGBKT7-mLATS2N96) (mouse, UniProt P04386 1-147 (Saccharomyces cerevisiae entry)); assay: as above
T2 construct: Made by removing the Pst I fragment from pGBKT7-mLATS2b; also called N-terminal 96 amino acids of mLATS2/2b

[3] = target: T1, mLATS2b fused to the GAL4 DNA binding …; assay: yeast two-hybrid
[4] = target: T3, mLATS2 fused to the GAL4 DNA binding domain (pGBKT7-mLATS2) (mouse, UniProt P04386 1-147; Q7TSJ6 1-1042); assay: yeast two-hybrid (growth on quadruple dropout plates)
T3 construct: Made by inserting the Bsm I-Xho I fragment of pcDNA3-mLATS2 into pGBKT7-mLATS2b; also called mLATS2/2b

Row | Binder | binding result [1] | binding result [2] | binding result [3] | binding result [4]
1 | B1 | binds | no binding |  | 
2 | B2 |  | no binding | binds | 
3 | B3 | no binding |  |  | no binding
